The record followed here is paper PMC4397538 (2015).

For this assay, the target named is T1, Biotin-BH4-Bcl-XL (Homo sapiens (Human), UniProt Q07817, biotin on the N-terminus (also used without the biotin tag)).
T1 chain: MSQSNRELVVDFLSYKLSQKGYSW
The assay can be described thus: SPR.

B1: GST-tagged IP3R1 domain 3 (mouse IP3R1, a.a. 923-1581) (protein)
chain: SIHGVGELMTQVVLRGGGFLPMTPMAAAPEGNVKQAEPEKEDIMVMDTKLKIIEILQFILNVRLDYRISCLLCIFKREFDESNSQSSETSSGNSSQEGPSNVPGALDFEHIEEQAEGIFGGSEENTPLDLDDHGGRTFLRVLLHLTMHDYPPLVSGALQLLFRHFSQRQEVLQAFKQVQLLVTSQDVDNYKQIKQDLDQLRSIVEKSELWVYKGQGPDEPMDGASGENEHKKTEEGTSKPLKHESTSSYNYRVVKEILIRLSKLCVQESASVRKSRKQQQRLLRNMGAHAVVLELLQIPYEKAEDTKMQEIMRLAHEFLQNFCAGNQQNQALLHKHINLFLNPGILEAVTMQHIFMNNFQLCSEINERVVQHFVHCIETHGRNVQYIKFLQTIVKAEGKFIKKCQDMVMAELVNSGEDVLVFYNDRASFQTLIQMMRSERDRMDENSPLMYHIHLVELLAVCTEGKNVYTEIKCNSLLPLDDIVRVVTHEDCIPEVKIAYINFLNHCYVDTEVEMKEIYTSNHMWKLFENFLVDICRACNNTSDRKHADSILEKYVTEIVMSIVTTFFSSPFSDQSTTLQTRQPVFVQLLQGVFRVYHCNWLMPSQKASVESCIRVLSDVAKSRAIAIPVDLDSQVNNLFLKSHNIVQKTALNWRLSAR
For the molecule B1, the binding result is “no binding”.
